We go through 1 molecule from patent publication US20250340628A1, “COMPOSITIONS AND METHODS FOR TREATING MACROPHAGE ACTIVATION SYNDROME” (TJ Biopharma (Hangzhou) Co., Ltd., priority 2022, published 2025).

Entries after “also recorded” stand apart in the source; their conditions may differ.

Series [1] is classed as physicochemical. On the procedure:
Three different buffer systems, sodium acetate, histidine hydrochloride and sodium dihydrogen phosphate, were initially evaluated, at various different pH levels, for IMH001. […] The next step evaluated a number of excipients, including sucrose, trehalose, mannitol, proline, arginine hydrochloride, glycine, solidum chloride, PS20 and PS80. According to the changes in stability (CEX-HPLC) results at 50° C. for 1 week, comparison was carried out for the formulation with different excipients. […] It was unknown, however, whether the selected buffer and excipient would allow a protein solubility of IMH001 suitable for subcutaneous injection at a high concentration. The solubility and viscosity of the protein at concentrations of 100 mg/ml and 150 mg/ml in histidine hydrochloride buffer system (pH 5.8) were therefore assessed. […] PS80 (Polysorbate 80) was then tested for its ability to improve durability and stability of the candidate formulations, at different concentrations of sucrose for a protein concentration of 100 mg/ml.

The test system of series [2] is macrophage activation syndrome (MAS) model in NOG-EXL mice (overexpress human IL-3 and GM-CSF). Kind of series: macrophage activation syndrome (MAS) model induced by CBMC transplantation in NOG-EXL mice. It counts as in vivo. On the procedure:
This study is performed to evaluate the in vivo efficacy of IMH001 (see sequences in Table 1), a GM-CSF neutralization antibody, on delaying the disease progression in a macrophage activation syndrome (MAS) model (induced by CBMC transplantation) in NOG-EXL mice. This lymphocyte-independent, effector-driven MAS mice model can be established by engrafting human umbilical cord blood (UCB) into NOG-EXL mice. NOG-EXL (NOD.Cg-Prkdc^scidIL2g^tm1SugTg (SV40/HTLV-IL3, CSF2) is a gene modified strain based on NOG (NOD.Cg-Prkdc^scidIL2^tm1Sug) mice, which is immunodeficient and overexpress human IL-3 and GM-CSF continuously, which can enrich the myeloid cell populations, including Dc, monocyte and macrophage, following human stem cell engraftment. A total of 46 NOG-EXL and 8 NOG mice were used in the study.
Five to six-week-old NOG-EXL mice were irradiated with 1 Gy before tail vein injection of OKT3-pretreated cord blood mononuclear cells (CBMC) reconstitution. The day of reconstruction was defined as Day 0. OKT3-pretreated CBMC engrafted NOG-EXL mice were treated with biweekly i.p. doses of PBS or 10 mg/kg IMH001 starting from week 1 of engraftment. Animal body weights, CBC counting, and serum ferritin were measured at indicated time points.
Four NOG mice (G1) and 14 NOG-EXL mice (6 mice for G2 and 8 mice for G3, respectively) were dosed one week after reconstruction (Day 7), twice a week for 15 weeks. The grouping and dosing regimens were as follows in Table 2:
Body weight: The body weight of mice was measured and recorded once a week after CBMC transplantation.
CBC counting: Whole blood was collected from mice and counted by a CBC machine at week 4, 8 and 16. And at the end of the study, i.e. week 16, total bone marrow viable cells were also counted. Before blood collection, mice were anesthetized with 3-4% isoflurane.
Ferritin, fibrinogen and triglycerides: Serum was collected from mice at week 8 and 16. Then measured separately using ELISA kits. Prior to blood collection, mice were anesthetized with 3-4% isoflurane.
Experimental endpoint collection: The endpoint is Day 112/Week 16. Spleens were collected and weighed from all mice of each groups; cell smears from bone marrow, sections of liver and spleen were collected for Wright Giemsa staining to detect the presence of hemophagocytosis. Activated lymphoid tissue, spleen/lymph nodes, liver, and meninges were collected for H&E section to detect inflammatory cell infiltration and depletion of lymphoid follicles in spleen/lymph nodes.
All data statistical analysis methods involved in this project needed to be consistent with the protocol, and the results were expressed as mean±SEM. Firstly, F-test (IDBS E-WorkBook 10.5.0 (64 bit) © TDBS) was used to analyze the homogeneity of variance. If the variance was homogeneity (p>0.05), one-way ANOVA was carried out. T-test was used for two groups comparation, and Dunnett's multiple comparison method was used for multiple groups comparation. If the variance was heterocedasticity (p≤0.05), Kruskal Wallis method was performed for nonparametric test, U-test was used for two groups comparation (Kruskal Wallis parameter test has significant difference, p≤0.05), and Dunn's multiple comparison method was used for multiple groups comparation (Kruskal Wallis parameter test has no significant difference, p>0.05). p<0.05 was considered as significant difference.

Where [3] appears, read: 100 mg/ml and 150 mg/ml in 20 mmol/L histidine hydrochloride pH 5.8, 4° C. and 25° C. for 48 hours.
Setting [4] is: serum, week 8 and 16, 10 mg/kg i.p. BIW.

B1: IMH001: humanized IgG1 anti-GM-CSF neutralization antibody with VH of SEQ ID NO:1 and VL of SEQ ID NO:2 (antibody, V domains shown)
VH: EVQLVQSGAEVKKPGASVKVSCKASGYTFTSHYLHWVRQAPGQGLEWMGWIFPGDDKTKYNEKFKGRVTMTSDTSISTAYMELSRLRSDDTAVYYCARGTKYLNWNFDVWGQGTTVTVSS
VL: DIQLTQSPSFLSASVGDRVTITCKANQNVGTTLAWYQQKPGKSPKALIYSASYRYSGVPDRFSGSGSGTDFTLTISSLQPEDFATYFCHQYTTYPLTFGGGTKVEIK
For B1, in series [1], the “antibody stability in buffer systems” value was “stable”. Further, in series [1] (setting [3]), the “changes in appearance color, clarity, OD350, protein concentration and viscosity” value is “no obvious changes”; the viscosity result is listed as “lower than 10 cP”. For the same molecule, the “viscosity of samples with PS80 and different sucrose concentrations” value in series [1] (protein concentration 100 mg/ml) is reported as “acceptable”. Also, the body weight entry in series [2] (10 mg/kg i.p. BIW (G3) vs vehicle control group (G2), Day 63 to Day 112, p<0.05) was “significantly increased; also recorded: reduced weight loss”. The “disease development / progression (overall)” value in series [2] (10 mg/kg i.p. BIW for 15 weeks) was “completely reversed; also recorded: showed efficacy”. In addition, the NEUT percent entry in series [2] (10 mg/kg i.p. BIW vs untreated) is “recovery”. Further, the “RBC number in peripheral blood (anemia)” value in series [2] (10 mg/kg i.p. BIW vs untreated NOG-EXL, in words) is given as “effectively improve; also recorded: ameliorated anemia”. Also, in series [2] (10 mg/kg i.p. BIW vs untreated, Day 56), the HGB level entry is reported as “significantly higher; also recorded: increase”. For the same molecule, the monocyte percent entry in series [2] (10 mg/kg i.p. BIW, considered pharmacological effect) is “decrease”. Also, in series [2] (day 112, 10 mg/kg i.p. BIW, vs NOG-EXL untreated 9.55, p=0.182), the “total bone marrow viable cells (mean value)” value is recorded as 11.6. In series [2] (peripheral blood CBC, Day 56, 10 mg/kg i.p. BIW, vs untreated 6.45, p<0.001), this molecule registered an RBC cell number of 8.17. In series [2] (setting [4]), the Fibrinogen result is on record as “No significant changes” and the Triglyceride entry is reported as “No significant changes”. For the same molecule, the Ferritin level result in series [2] (serum, wk 8 and wk 16, 10 mg/kg i.p. BIW vs untreated) is on record as “effectively control; also recorded: significantly reduce; also recorded: inhibited ferritin increase”. Besides, in series [2] (wk 16, H&E, liver and meninx), the “inflammatory infiltration (histopathology)” value is on record as “decreased; also recorded: improved significantly”. The “lymphocyte exhaustion (histopathology)” value in series [2] (wk 16, H&E, spleen and lymph nodes) is listed as “effectively reduce; also recorded: improved significantly”. For the same molecule, the “hemophagocytosis (histopathology)” value in series [2] (wk 16, Wright Giemsa staining of bone marrow smears, liver and spleen sections) was “effectively prevent; also recorded: improved significantly”.
